Assay results as given in paper PMC12203670.
Values joined by “and” are separate entries in the source; they are usually repeats but may differ in a detail not shown here. Identical values can stand only once.

Biological target: PKM2 (pyruvate kinase M2), endogenous in mouse heart (mouse (endogenous in heart)) (UniProt P52480)
Assay: cross-linking; cross-linking of cardiac PKM2, Western blot of monomer, dimer and tetramer; hearts of Ctrl and cKO mice after 3-h reperfusion, with TEPP-46 or vehicle, or with Ad-Mtx2

Chain of PKM2 (pyruvate kinase M2), endogenous in mouse heart, P52480 1-531 (enzyme; other documents disagree on this pair) (P52480 whole entry): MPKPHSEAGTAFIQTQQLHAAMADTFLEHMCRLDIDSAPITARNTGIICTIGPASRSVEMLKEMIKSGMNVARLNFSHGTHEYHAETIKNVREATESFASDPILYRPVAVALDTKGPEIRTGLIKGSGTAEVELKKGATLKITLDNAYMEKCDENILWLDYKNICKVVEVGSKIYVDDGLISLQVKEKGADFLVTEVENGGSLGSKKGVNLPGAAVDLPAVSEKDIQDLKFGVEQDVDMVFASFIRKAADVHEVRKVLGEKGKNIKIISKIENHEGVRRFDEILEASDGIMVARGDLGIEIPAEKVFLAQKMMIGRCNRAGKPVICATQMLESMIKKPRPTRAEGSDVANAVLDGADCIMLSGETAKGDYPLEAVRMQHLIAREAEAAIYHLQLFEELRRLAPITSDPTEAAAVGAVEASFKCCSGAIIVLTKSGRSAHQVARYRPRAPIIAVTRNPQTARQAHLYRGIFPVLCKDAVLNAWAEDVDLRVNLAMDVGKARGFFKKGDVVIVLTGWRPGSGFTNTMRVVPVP

stoichiometry N: 4 and 2
Substance: PKM2 (pyruvate kinase M2), endogenous in mouse heart, P52480 1-531 (enzyme; other documents disagree on this pair)
